Values quoted from earlier work as cited in patent publication US20210333272A1.

Tested on: CD63 fragment
Conditions: CITED BasePair Biotechnologies CD63 aptamer data sheet; cited from earlier work

BasePair CD63 aptamer (ATW0056)
Kd: 17.1 nM
